Results as given in patent publication US20220184221A1 (published 2022).
Where no end group is shown, it is not given here.

Legend:
Assay in all cases: inhibition of recombinant KDM5 demethylase activity (H3K4me3 peptide); legend calls it IC50
[1] = target: T1, recombinant KDM5C (UniProt P41229 1-765)
T1 chain: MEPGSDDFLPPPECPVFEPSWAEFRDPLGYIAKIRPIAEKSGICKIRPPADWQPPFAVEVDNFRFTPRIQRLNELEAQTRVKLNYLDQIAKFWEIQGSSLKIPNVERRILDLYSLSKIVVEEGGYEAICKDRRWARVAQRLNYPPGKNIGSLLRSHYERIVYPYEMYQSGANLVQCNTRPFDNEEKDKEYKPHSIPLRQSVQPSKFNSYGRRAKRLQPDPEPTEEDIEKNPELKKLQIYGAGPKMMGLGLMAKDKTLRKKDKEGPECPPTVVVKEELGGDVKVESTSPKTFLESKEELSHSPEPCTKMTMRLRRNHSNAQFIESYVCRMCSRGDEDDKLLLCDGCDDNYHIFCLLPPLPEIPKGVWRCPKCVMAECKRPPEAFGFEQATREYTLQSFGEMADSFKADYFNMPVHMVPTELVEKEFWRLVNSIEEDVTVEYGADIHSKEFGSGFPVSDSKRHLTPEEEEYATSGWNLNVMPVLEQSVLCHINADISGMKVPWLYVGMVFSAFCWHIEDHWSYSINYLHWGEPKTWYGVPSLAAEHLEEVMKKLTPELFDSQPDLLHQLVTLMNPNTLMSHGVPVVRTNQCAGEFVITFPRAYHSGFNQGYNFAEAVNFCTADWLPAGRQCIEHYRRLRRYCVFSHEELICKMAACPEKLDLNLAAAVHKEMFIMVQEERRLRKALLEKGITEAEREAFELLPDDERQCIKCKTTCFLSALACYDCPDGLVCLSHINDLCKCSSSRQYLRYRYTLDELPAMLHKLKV

[2] = target: KDM5A
[3] = target: KDM5B

Binder: TEDSKTHHH (also: fluorescein label in FP assay, end not given here) [EP4]
- EC50 [1]: 0.97 nM
- EC50 [2]: 422 nM
- EC50 [3]: 377 nM
